Measured values reported in article PMC5290284, “Portal protein functions akin to a DNA-sensor that couples genome-packaging to icosahedral capsid maturation” (Nature Communications, 2017).

B1: P22 tail factor gp4 (natural protein, bacteriophage P22, UniProt P26746 1-166, looked up)
chain: MQIKTKGDLVRAALRKLGVASDATLTDVEPQSMQDAVDDLEAMMAEWYQDGKGIITGYVFSDDENPPAEGDDHGLRSSAVSAVFHNLACRIAPDYALEATAKIIATAKYGKELLYKQTAISRAKRAPYPSRMPTGSGNSFANLNEWHYFPGEQNADSTTPHDEGNG
notes: Tail factor gp4 of bacteriophage P22; source: E. coli BL21 (DE3), purified (Ni-agarose, Superdex 75)
B2: P22 PC-portal protein core (res. 1–602), procapsid conformation (domain or fragment, bacteriophage P22, UniProt P26744 1-602, looked up)
chain: MADNENRLESILSRFDADWTASDEARREAKNDLFFSRVSQWDDWLSQYTTLQYRGQFDVVRPVVRKLVSEMRQNPIDVLYRPKDGARPDAADVLMGMYRTDMRHNTAKIAVNIAVREQIEAGVGAWRLVTDYEDQSPTSNNQVIRREPIHSACSHVIWDSNSKLMDKSDARHCTVIHSMSQNGWEDFAEKYDLDADDIPSFQNPNDWVFPWLTQDTIQIAEFYEVVEKKETAFIYQDPVTGEPVSYFKRDIKDVIDDLADSGFIKIAERQIKRRRVYKSIITCTAVLKDKQLIAGEHIPIVPVFGEWGFVEDKEVYEGVVRLTKDGQRLRNMIMSFNADIVARTPKKKPFFWPEQIAGFEHMYDGNDDYPYYLLNRTDENSGDLPTQPLAYYENPEVPQANAYMLEAATSAVKEVATLGVDTEAVNGGQVAFDTVNQLNMRADLETYVFQDNLATAMRRDGEIYQSIVNDIYDVPRNVTITLEDGSEKDVQLMAEVVDLATGEKQVLNDIRGRYECYTDVGPSFQSMKQQNRAEILELLGKTPQGTPEYQLLLLQYFTLLDGKGVEMMRDYANKQLIQMGVKKPETPEEQQWLVEAQQAKQG
notes: Portal protein (gp1) of bacteriophage P22, core, residues 1–602; Asymmetric dodecamer; also called PC-portal core; portal-602; copies: 12

How the values were obtained:
[1] = target: T1, P22 PC-portal rings coupled to CNBr-activated Sepharose beads (bacteriophage P22, UniProt P26744 1-725); assay: pull-down; PC- or MV-portal rings immobilized on CNBr-activated Sepharose 4B beads; soluble protein added (L-terminase pre-complexed with non-hydrolyzable ATP); bound and unbound fractions on SDS–PAGE; conditions: both partners purified
T1 construct: Portal protein (gp1) of bacteriophage P22; Procapsid conformation; also called PC-portal protein; PC-portal beads; source: E. coli BL21 (DE3), purified (Ni-NTA, Superose 6); copies: 12
T1 sequence (looked up): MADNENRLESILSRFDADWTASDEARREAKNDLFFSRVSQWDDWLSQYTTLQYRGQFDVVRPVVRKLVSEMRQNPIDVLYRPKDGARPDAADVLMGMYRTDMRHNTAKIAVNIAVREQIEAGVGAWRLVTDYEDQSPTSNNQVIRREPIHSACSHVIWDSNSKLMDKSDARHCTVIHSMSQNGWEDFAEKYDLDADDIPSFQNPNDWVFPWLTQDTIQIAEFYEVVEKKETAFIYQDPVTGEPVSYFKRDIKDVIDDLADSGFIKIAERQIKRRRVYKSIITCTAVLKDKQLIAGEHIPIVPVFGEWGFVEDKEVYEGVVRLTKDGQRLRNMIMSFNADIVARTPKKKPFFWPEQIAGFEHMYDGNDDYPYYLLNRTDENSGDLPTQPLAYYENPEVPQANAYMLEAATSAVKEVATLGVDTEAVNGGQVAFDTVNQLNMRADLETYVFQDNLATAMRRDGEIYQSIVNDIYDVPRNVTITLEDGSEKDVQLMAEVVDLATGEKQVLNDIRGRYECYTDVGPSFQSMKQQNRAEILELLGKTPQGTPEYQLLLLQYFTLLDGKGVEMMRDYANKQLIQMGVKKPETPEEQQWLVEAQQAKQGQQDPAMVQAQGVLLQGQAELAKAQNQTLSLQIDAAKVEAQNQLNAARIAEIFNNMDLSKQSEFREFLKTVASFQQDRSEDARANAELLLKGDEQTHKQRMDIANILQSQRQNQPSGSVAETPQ

[2] = target: T2, P22 MV-portal rings coupled to CNBr-activated Sepharose beads (bacteriophage P22, UniProt P26744 1-725); assay: as above; conditions: both partners purified
T2 construct: Portal protein (gp1) of bacteriophage P22; Mature virion conformation; also called MV-portal protein; MV-portal beads; source: E. coli BL21 (DE3), purified (Ni-agarose, Superose 12); copies: 12
T2 sequence (looked up): T1 sequence (looked up)

[3] = target: the molecule itself; assay: crystal structure; PC-portal core at 10 mg/ml, 5% PEG 8,000, 10 mM caesium chloride, pH 5.6, 22 °C; 3.30 Å; whole dodecamer in the asymmetric unit

| Binder | stoichiometry N [1] [gp4 equivalents] | stoichiometry N [2] [gp4 equivalents] | stoichiometry N [3] [protomers] |
| --- | --- | --- | --- |
| B1 | 11.4 ± 1 | 11 ± 1 |  |
| B2 |  |  | 12 |
